Consider 19 sequences from the DeepSol protein solubility set.

This series is described as follows: soluble on expression in E. coli; label from the status in PepcDB or PDB records.
For “MSEQQVQELEKKWYALQVEPGKENEAKENLLKVLELEGLKDLVDEVIVPAEEKVVIRAQGKEKYRLSLKGNARDISVLGKKGVTTFRIENGEVKVVESVEGDTCVNAPPISKPGQKITCKENKTEAKIVLDNKIFPGYILIKAHMNDKLLMAIEKTPHVFRPVMVGGKPVPLKEEEVQNILNQIKRGVKPSKVEFEKGDQVRVIEGPFMNFTGTVEEVHPEKRKLTVMISIFGRMTPVELDFDQVEKI”, the “soluble on expression in E. coli” value is recorded as “soluble”. With “MSEQYKQPNTPEPYWRQSTPLPDFKPLQNDLLVDVVIVGGGITGITTAYLLQKRGKKVVILEADRLFNGTTGHTTAKITAQHGLIYDEFIQHFGEDKAKQYYDAQMEAKTFIKNTVQDLSIDCDFQEHDAYIYTNANRYLAKLEREMRAYEKLQINGSLIDSMPLQVPIKKAIVMKGQAQFHPIAYLMKLVQDFIDRGGLIFEHTVATDVDKGEHRTVLTRDGHKVTCDYVVESSHFPFFDRGFYFSRMYADRSYVLGLKVKEPYPGGMYLSAEDPPRSIRHASYQGEDLWLISGETHKTGQGMDTDYHYEALESFSREMFNVTDISYRWSAQDLVTLDRMPYIGPATSNDPHILVATGFRKWGMTNGTIAAHVITDLIIGQVNAYQKLFAPQRFVADPSLRKFFSYNVDVAKHLIDGKTEKGSRTPESLQKDEGDVVNVNGKRAGGYRDTDGALHLVDTTCTHMGCEVSWNHGDRTWDCPCHGSRFSYDGEVVEGPAKKPLKKIDHTLEHHHHHH”, the “soluble on expression in E. coli” value is listed as “soluble”.

For the sequence “MSERVCAVIVTYNRKALLRECLKAVLSQTRPPDHVLVVDNASTDGTPEMLQEEFPQVEVLRLPENQGGAGGFHEGMKRAYEQGVDWLWLMDDDTIPKAKALEALLEAARLPLDPRPRVLASRQLLPNGLPHPTTAFVNPTDPRHPFLWLRLRPRYRPIRWALFTSVLLHRSLVEEHGLPHKAFFIWEDDLEYTARALRRGLGLQVRDSEVIHKSASKPYISATTGENRLFYGVRNRIWVLRSPAFGPLGKAFLALQLLFGLLTYLAFHPSQKSLQEIGRALRAGLTTSPCLEHHHHHH”, the “soluble on expression in E. coli” value is reported as “not soluble”. For “MSEVDAQEEFHDAPEEAVIEIQKDFVAEIEQDNSNAQLVEEGDDQLVTAEADDEKSAQQVDEDRTEDQVPDITGTEYVDPMTTSMDGIEDLPANDEAQFEDTILEEDELPDQLESAENQEPRSELVSSGVEEEIIEEEDIEEIEESDYVEESAPADEPAPEEEKPQEEAPAEEPAPAEEAPQEEVPAEEPVAEETAPAEEAAVEEPVVEEAAPVEEAPEAEETAPAEEPLIEVAVEEAPAEEPVAEEAEPEAEKQEFELQAPPEGKRPRTPNDLDNPTADEEPAAELEADAGSEVPPTPKTAASEKQSVPPTPKSAAPSEVPPTPKSAAPSEVPPTPKSAAPSEVPLTPKSAAQSSVPPTPKSAVPSEAPPTPRSAAPSDVPPTPKSNGHIANGSIPGTPSVAQESAKATPAATPAATATPAATATPAATGTPKADTAFNFEETPATPRSSVPATPTESNLTTPAPKTPKTPKTPRTPRTPKTPRTPKTPAVVEPEPEPVAEEPEPVAEPEPEPEPVAEAEPEAEPAVEEEPAEEPEPAADETATEPTAEEAEPEAVEESIEKTEVVEEESAPPAARQSSPSPPPARRRPQSPSPERQRTSRHADRDITSYDEDSYRAVPPPRMPTATSFSSWSPPDKQSYTPISPFVSTANKYRNEYTSGSSYRPTNMYTSHFDDIVATGAFSSALYSTNRLIERSRSRTRERKQAMRSQRSASNYYRYSSQAPAPLRAREYSTPPTREISRAPSRNTSFVSFLDYSSAKQGELSRANSRTSIYGDSLSRSCSRANVDAYLGGGRLSRVDSYVRDIHTPYEYEVPSTYDRYRSSSRGPSYSTINGYTAYISSPSYVETESTRRMKRYQRDTSPAMVRSMYEGRIGQLERSLSREVIQKDRVCLWRLGNVVYGGLYRKKYDADLEKAVQYYSSCAKKRRF” the value was “not soluble”; for “MSEVQQLPIRAVGEYVILVSEPAQAGDEEVTESGLIIGKRVQGEVPELCVVHSVGPDVPEGFCEVGDLTSLPVGQIRNVPHPFVALGLKQPKEIKQKFVTCHYKAIPCLYK”, “soluble”. Turning to “MSFALGQRWISDTESDLGLGTVVALDARTVTLMFAASEENRVYARSDAPVTRVIFNVGDVVDSQQGWSLQVEQVVEDQGVYTYLGTRVDTEESGVALREIFLSNQIRFNKPQDKLFAGQIDRMDNFVLRY”, the “soluble on expression in E. coli” value is “not soluble”. For “MSFDSLGLSPDILRAVAEQGYREPTPIQQQAIPAVLEGRDLMASAQTGTGKTAGFTLPLLQHLITRQPHAKGRRPVRALILTPTRELAAQIGENVRDYSKYLNIRSLVVFGGVSINPQMMKLRGGVDVLVATPGRLLDLEHQNAVKLDQVEILVLDEADRMLDMGFIHDIRRVLTKLPAKRQNLLFSATFSDDIKALAEKLLHNPLEIEVARRNTASDQVTQHVHFVDKKRKRELLSHMIGKGNWQQVLVFTRTKHGANHLAEQLNKDGIRSAAIHGNKSQGARTRALADFKSGDIRVLVATDIAARGLDIEELPHVVNYELPNVPEDYVHRIGRTGRAAATGEALSLVCVDEHKLLRDIEKLLKKEIPRIAIPGYEPDPSIKAEPIQNGRQQRGGGGRGQGGGRGQQQPRRGEGGAKSASAKPAEKPSRRLGDAKPAGEQQRRRRPRKPAAAQ” the value was “soluble”; for “MSFFFLEVLTYFDYDSSMTIKAEIKALAKEIGISKIGFTTADNFDYLEKSLRASVEEGRNSGFEHKVIEDRIYTERLLESAKTIISIGVAYPHKLPQQPQKTPYKRGKITPSSWGLDYHYVVGEKLDRLSKGIEELCRDFPLQQKAMVDTGALVDTAVAQRAGIGFIGKNGLVISKEYGSYMFLGELITNLEIEPDKPVDYDCGDCRRCLDACPTSCLIGDGSMNAKRCLSFQTQDKGMMDIEFRKKIKTVIYGCDICQICCPYNKGINNSPATEIDPELAQPELIPFLSLSNGKFKEKFGMIAGSWRGKNILQRNAIIALANAHDKTAVVKLIEIIDKNNNPIHTATAIWALGEIVKKPNDEILAFMSHLTLKDEDSRKELELIRHKWQF”, “not soluble”.

Regarding “MSFKDYEYKRPNIEELKEKFTVALEKFDNAKTVEEQKQVIHSINEIRNDFGTMGNLCYIRHSVDTTDAFYKEEQDFFDEFSPVVQGYGTKYYNALIHSPFREELEAYYGKQLFALAECDLKTYSDEVVKDLQLENKLSSQYTQLLASAKIDFAGEERTLSQLIPFMQGKERSERKAASEAYYGFLAENEEELDRIYDELVKVRTKIAKSLGFKNFVELGYARMYRTDYNAEMVANYRQQVLDYIVPVTTELRKRQQARIGVEKLAYYDENFEFPTGNPTPKGDADWIVNHGKTMYKELSAETDEFFNFMLDNDLLDLVAKKGKAGGGYCTYIENYKAPFIFSNFNGTSGDIDVLTHEAGHAFQVYESRKFEIPEYNWPTYEACEIHSMSMEFFTWPWMKLFFEEDADKYYFSHLSSALLFLPYGVSVDEYQHYVYENPEASPEERKTAWRNIEKKYLPHRDYEDNDYLERGGFWQRQGHIYSSPFYYIDYTLAQICALQFWKRARDNRQEAWEDYVNLCQQGGSKSFLELVEVANLTSPFAEGCVKSVITEIEAWLHAIDDTKL”, the “soluble on expression in E. coli” value is listed as “not soluble”. For the sequence “MSFRHFKRRLDTSSADESSSADEEHPDQNVSLTEKSASLSHSDLGGEILNGTGKNRTPNDGQESNESDGSPESDESPESEESSDNSDSSDSDDMRPLPRPLFMKKKANNLQKATKIDQPWNAQDDARVLQTKKENMIKNIDKANQVAKNYETMKLRLNTNYSTNEELIKQCLLLDDNDEVDSEKERQKWFERQNERKQKHRRIQLAKQRESEEYEAKRFEAMQKGKDGNTKYDVILDKEKEKLDHKKQRSAEKVEKSHNNNRYKITRTKNVEFGDLGKNSRDYEETEYSVI”, the “soluble on expression in E. coli” value is “soluble”. For “MSFSRRPKVTKSDIVDQIALNIKNNNLKLEKKYIRLVIDAFFEELKSNLCSNNVIEFRSFGTFEVRKRKGRLNARNPQTGEYVKVLDHHVAYFRPGKDLKERVWGIKG” the value was “soluble”. As to “MSFTQLMRVSMKIAFIGEAVSGFGGMETVIRDVITTFRQQHIQSEMFFFCRNDKMDKGWLEGIKYSCSFSNIRLGFLRRAKHIHALSKWLQEYQPDIVICIDVISCLFAAKARKKSGIDMPVFSWPHFSLDHKKHAEYITCADYHLAISSGIKQQMINRGVAESTINVIFNPVETKDSVIPAPEEGETATFIYVGRMKFEGQKRVKDLLDGLSQAKGNWKLHVLGDGSDFEKCQAYGRELNIDDRIVWYGWQQYPWELVQQDIEKVSALLLTSSFEGFPMTLLEALSWGIPCISADCVSGPADIIQPDVNGHLYQPGDIAGFVTLLNKYIAGEIHIEHEKIPASIDEFYQSKYYDRLHKVIISAISRRK”, the “soluble on expression in E. coli” value is given as “not soluble”. As to “MSFVKKTKNFFGLDGEADPYMEHSDAYYDEPRYEPAPAYSAPRYEEPIYASARPRAARPMPTHIVPVRLLTYSDAAIKVGDPFRDGDAVVFDMSDMHKGEAKRIIDFAAGLCFALRGQMRKLDGRIFALVPESASVDENDLKHAAGLIHLEHHHHHH”, the “soluble on expression in E. coli” value is “not soluble”. To “MSFVNVDPFGMLAAAATLESLGSHMAVSNAAVASVTTKVPPPAADYVSKKLSLFFSSHGQQYQVQAARGTAFHRKLVRTLANGALAYEEVEIANNEGF” belongs “not soluble”; to “MSGAAKRVATSSVNWSKLAERLVPEHAAELTRVKGVSGTFQSAVSQLPADLPKIDFAALKKALPAHSAVLDSLQKQYESVKIPYGEVPAEYLKEVDQWVDYNNARIKLHEVKVADGLQEAKKVEEKWAKAPPVEHFDRQHFVEYFPAHFYDLRYQNRIPDPCNIGLNETPEIENRFKDYKVLRRADKVDDH”, “not soluble”. For “MSGAFNNDGRGISPLIATSWERCNKLMKRETWNVPHQAQGVTFASIYRRKKAMLTLGQAALEDAWEYMAPRECALFILDETACILSRNGDPQTLQQLSALGFNDGTYCAEGIIGTCALSLAAISGQAVKTMADQHFKQVLWNWAFCATPLFDSKGRLTGTIALACPVEQTTAADLPLTLAIAREVGNLLLTDSLLAETNRHLNQLNALLESMDDGVISWDEQGNLQFINAQAARVLRLDATASQGRAITELLTLPAVLQQAIKQAHPLKHVEATFESQHQFIDAVITLKPIIETQGTSFILLLHPVEQMRQLMTSQLGKVSHTFAHMPQDDPQTRRLIHFGRQAARSSFPVLLCGEEGVGKALLSQAIHNESERAAGPYIAVNCELYGDAALAEEFIGGDRTDNENGRLSRLELAHGGTLFLEKIEYLAVELQSALLQVIKQGVITRLDARRLIPIDVKVIATTTADLAMLVEQNRFSRQLYYALHAFEITIPPLRMRRGSIPALVNNKLRSLEKRFSTRLKIDDDALARLVSCAWPGNDFELYSVIENLALSSDNGRIRVSDLPEHLFTEQATDDVSATRLSTSLSFAEVEKEAIINAAQVTGGRIQEMSALLGIGRTTLWRKMKQHGIDAGQFKRRV” the value was “soluble”; for “MSGIFGVIVSGRTPIEVVPVSDTEFTCEIVNADAINHVVVFLTGAQPFPDGIGGSGDHFQNFPPKKTQFISVYIRWPTQDGGNWHYLGFICNEKPSAIYKVAQLHKSDASHSFSQFDNQMQLYSSGSAQIGINAESLSDITGRQAADGTQASQQVKNLEKNT”, “soluble”; for “MSGKEPLNPNPVIASGRKCRLKDSSDGIFRKGRDALEKTAFQAGILFARQRGGIGRAGKRTGGGSFMPSESPPLRLFAKKVGKGTYNPVQSSINI”, “not soluble”. Turning to “MSGLHILAFGAHADDVEIGMAGTIAKYTKQGYEVGICDLTEADLSSNGTIELRKEEAKVAARIMGVKTRLNLAMPDRGLYMKEEYIREIVKVIRTYKPKLVFAPYYEDRHPDHANCAKLVEEAIFSAGIRKYMPELSPHRVESFYNYMINGFHKPNFCIDISEYLSIKVEALEAYESQFSTGSDGVKTPLTEGYVETVIAREKMFGKEVGVLYAEGFMSKKPVLLHADLLGGCK”, the “soluble on expression in E. coli” value is given as “not soluble”.
